Reference: the supplement of paper PMC9112550, “Optimization of the antimicrobial peptide Bac7 by deep mutational scanning” (BMC Biology, 2022)

tested on: Escherichia coli TOP10; assay: shrunken log2 fold change of peptide-encoding DNA abundance (4.5 h post-induction vs induction); higher = less antimicrobial activity (less host growth inhibition); details: time post-induction: 4.5 h; library: site-saturation at positions 5, 18, 19, 20
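Also: peptides expressed intracellularly from a pBAD plasmid library in pooled LB shake-flask culture, induced with 0.3% L-arabinose, DNA abundance read by NGS, three biological replicates, DESeq2 with apeglm shrinkage.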

Row | Sequence | shrunken log2 fold change
1 | RRIRGRPPRLPRPRPRPVNIPRP | 0.145
2 | RRIRERPPRLPRPRPRPILGPRP | -0.197
3 | RRIRSRPPRLPRPRPRPYSGPRP | -0.328
4 | RRIRIRPPRLPRPRPRPCFQPRP | -0.391
5 | RRIRHRPPRLPRPRPRPVQCPRP | -0.00186
6 | RRIRHRPPRLPRPRPRPCNWPRP | -0.0331
7 | RRIRVRPPRLPRPRPRPKGHPRP | -0.0413
8 | RRIRGRPPRLPRPRPRPKSLPRP | 0.413
9 | RRIRKRPPRLPRPRPRPRQWPRP | 0.263
10 | RRIRGRPPRLPRPRPRPGHDPRP | 0.0495
11 | RRIRARPPRLPRPRPRPANMPRP | -0.0999
12 | RRIRCRPPRLPRPRPRPSGYPRP | -0.724
13 | RRIRIRPPRLPRPRPRPWRTPRP | -1.03
14 | RRIRERPPRLPRPRPRPSGQPRP | -0.148
15 | RRIRVRPPRLPRPRPRPMMYPRP | 0.00519
16 | RRIRARPPRLPRPRPRPAECPRP | 0.041
17 | RRIRCRPPRLPRPRPRPTGFPRP | -0.135
18 | RRIRNRPPRLPRPRPRPSSRPRP | -0.164
19 | RRIRTRPPRLPRPRPRPQFSPRP | -0.823
20 | RRIRVRPPRLPRPRPRPNHGPRP | -0.0115
21 | RRIRSRPPRLPRPRPRPARTPRP | 0.293
22 | RRIRHRPPRLPRPRPRPCKGPRP | -0.0269
23 | RRIRCRPPRLPRPRPRPAHAPRP | 0.373
24 | RRIRPRPPRLPRPRPRPTHMPRP | 0.255
25 | RRIRERPPRLPRPRPRPVHQPRP | 0.107

Row | Sequence | shrunken log2 fold change
26 | RRIRSRPPRLPRPRPRPCGLPRP | 0.00512
27 | RRIRERPPRLPRPRPRPFYVPRP | -0.189
28 | RRIRMRPPRLPRPRPRPFRCPRP | -0.0869
29 | RRIRTRPPRLPRPRPRPHIVPRP | -0.102
30 | RRIRDRPPRLPRPRPRPWDMPRP | -0.133
31 | RRIRCRPPRLPRPRPRPTWWPRP | 0.294
32 | RRIRVRPPRLPRPRPRPYPCPRP | 3.36e-05
33 | RRIRCRPPRLPRPRPRPKFTPRP | -0.391
34 | RRIRVRPPRLPRPRPRPQSIPRP | -0.176
35 | RRIRKRPPRLPRPRPRPQNDPRP | -0.0578
36 | RRIRIRPPRLPRPRPRPKFGPRP | 0.0227
37 | RRIRVRPPRLPRPRPRPQQIPRP | -0.119
38 | RRIRCRPPRLPRPRPRPQEFPRP | -0.366
39 | RRIRNRPPRLPRPRPRPVPWPRP | 0.23
40 | RRIRQRPPRLPRPRPRPRHQPRP | -0.00749
41 | RRIRIRPPRLPRPRPRPQCLPRP | -0.47
42 | RRIRVRPPRLPRPRPRPKTHPRP | -0.0994
43 | RRIRARPPRLPRPRPRPYHIPRP | -0.356
44 | RRIRIRPPRLPRPRPRPHMYPRP | -0.485
45 | RRIRCRPPRLPRPRPRPLCTPRP | -0.088
46 | RRIRPRPPRLPRPRPRPEFLPRP | -0.101
47 | RRIRERPPRLPRPRPRPDGVPRP | -0.162
48 | RRIRYRPPRLPRPRPRPCSAPRP | -0.212
49 | RRIRYRPPRLPRPRPRPNFEPRP | -0.242
50 | RRIRTRPPRLPRPRPRPGEIPRP | -0.26

Row | Sequence | shrunken log2 fold change
51 | RRIRFRPPRLPRPRPRPSDTPRP | -0.308
52 | RRIRGRPPRLPRPRPRPGMCPRP | 0.489
53 | RRIRTRPPRLPRPRPRPNRRPRP | 0.0696
54 | RRIRIRPPRLPRPRPRPQPTPRP | 0.115
55 | RRIRDRPPRLPRPRPRPCDNPRP | -0.283
56 | RRIRERPPRLPRPRPRPAWFPRP | 0.187
57 | RRIRARPPRLPRPRPRPYRDPRP | -0.761
58 | RRIRMRPPRLPRPRPRPYEQPRP | -0.222
59 | RRIRCRPPRLPRPRPRPRATPRP | 0.509
60 | RRIRRRPPRLPRPRPRPVVVPRP | 0.186
61 | RRIRTRPPRLPRPRPRPHSGPRP | -0.166
62 | RRIRKRPPRLPRPRPRPMDEPRP | 0.966
63 | RRIRWRPPRLPRPRPRPSQQPRP | -0.002
64 | RRIRCRPPRLPRPRPRPVHGPRP | 0.267
65 | RRIRMRPPRLPRPRPRPVVLPRP | 0.272
66 | RRIRHRPPRLPRPRPRPRYVPRP | -0.585
67 | RRIRSRPPRLPRPRPRPEQFPRP | 0.0895
68 | RRIRKRPPRLPRPRPRPTRQPRP | 0.724
69 | RRIRRRPPRLPRPRPRPKHDPRP | 1.2
70 | RRIRCRPPRLPRPRPRPYLIPRP | -0.233
71 | RRIRYRPPRLPRPRPRPSDEPRP | -0.0199
72 | RRIRWRPPRLPRPRPRPTWLPRP | 0.694
73 | RRIRPRPPRLPRPRPRPHRAPRP | 0.402
74 | RRIRSRPPRLPRPRPRPHLFPRP | -0.32
75 | RRIRGRPPRLPRPRPRPSRIPRP | -0.234

Row | Sequence | shrunken log2 fold change
76 | RRIRRRPPRLPRPRPRPTAKPRP | 0.371
77 | RRIRVRPPRLPRPRPRPEDFPRP | 0.0252
78 | RRIRNRPPRLPRPRPRPHREPRP | -0.00211
79 | RRIRQRPPRLPRPRPRPCIAPRP | -0.0382
80 | RRIRWRPPRLPRPRPRPGENPRP | -0.0316
81 | RRIRQRPPRLPRPRPRPDYHPRP | -0.269
82 | RRIRWRPPRLPRPRPRPQNAPRP | -0.182
83 | RRIRYRPPRLPRPRPRPTIGPRP | -0.31
84 | RRIRFRPPRLPRPRPRPCPAPRP | 1.36
85 | RRIRTRPPRLPRPRPRPAFIPRP | -0.512
86 | RRIRGRPPRLPRPRPRPMGKPRP | 0.375
87 | RRIRWRPPRLPRPRPRPLGPPRP | 0.478
88 | RRIRPRPPRLPRPRPRPRAWPRP | 0.0147
89 | RRIRPRPPRLPRPRPRPKCEPRP | -0.187
90 | RRIRWRPPRLPRPRPRPIAWPRP | 0.713
91 | RRIRIRPPRLPRPRPRPEIIPRP | -0.00386
92 | RRIRNRPPRLPRPRPRPKPPPRP | 0.436
93 | RRIRARPPRLPRPRPRPISLPRP | -0.0678
94 | RRIRCRPPRLPRPRPRPSMDPRP | -0.182
95 | RRIRERPPRLPRPRPRPAKDPRP | -0.284
96 | RRIRLRPPRLPRPRPRPFVDPRP | 0.00121
97 | RRIRGRPPRLPRPRPRPELRPRP | 1.71
98 | RRIRCRPPRLPRPRPRPSCSPRP | -0.482
99 | RRIRPRPPRLPRPRPRPMWSPRP | -0.276
100 | RRIRKRPPRLPRPRPRPSVIPRP | -0.0922

Row | Sequence | shrunken log2 fold change
101 | RRIRGRPPRLPRPRPRPQTNPRP | 0.433
102 | RRIRWRPPRLPRPRPRPKSLPRP | -0.0933
103 | RRIRPRPPRLPRPRPRPPTRPRP | 0.683
104 | RRIRGRPPRLPRPRPRPWRKPRP | 0.12
105 | RRIRGRPPRLPRPRPRPPCMPRP | 0.293
106 | RRIRPRPPRLPRPRPRPFRDPRP | -0.118
107 | RRIRSRPPRLPRPRPRPQWIPRP | -0.425
108 | RRIRTRPPRLPRPRPRPHISPRP | -0.0286
109 | RRIRERPPRLPRPRPRPLDQPRP | 0.09
110 | RRIRFRPPRLPRPRPRPWRQPRP | -0.103
111 | RRIRQRPPRLPRPRPRPMGMPRP | 0.0187
112 | RRIRGRPPRLPRPRPRPWLDPRP | 0.0661
113 | RRIRMRPPRLPRPRPRPWCGPRP | 0.134
114 | RRIRFRPPRLPRPRPRPNVVPRP | -0.046
115 | RRIRYRPPRLPRPRPRPVYLPRP | 0.00668
116 | RRIRNRPPRLPRPRPRPKRDPRP | 0.411
117 | RRIRLRPPRLPRPRPRPNLTPRP | -0.299
118 | RRIRCRPPRLPRPRPRPLTMPRP | -0.262
119 | RRIRYRPPRLPRPRPRPAARPRP | 0.0304
120 | RRIRERPPRLPRPRPRPDKYPRP | -0.449
121 | RRIRPRPPRLPRPRPRPVNAPRP | 0.138
122 | RRIRYRPPRLPRPRPRPGYWPRP | -0.154
123 | RRIRQRPPRLPRPRPRPCKEPRP | 0.00843
124 | RRIRARPPRLPRPRPRPSEGPRP | -0.00533
125 | RRIRFRPPRLPRPRPRPCMIPRP | -0.118

Row | Sequence | shrunken log2 fold change
126 | RRIRWRPPRLPRPRPRPQAKPRP | 0.00651
127 | RRIRSRPPRLPRPRPRPDEYPRP | -0.205
128 | RRIRIRPPRLPRPRPRPGECPRP | -0.143
129 | RRIRYRPPRLPRPRPRPGNLPRP | 0.0185
130 | RRIRWRPPRLPRPRPRPLCYPRP | 0.0105
131 | RRIRPRPPRLPRPRPRPAKFPRP | 0.0407
132 | RRIRLRPPRLPRPRPRPMYHPRP | -0.493
133 | RRIRFRPPRLPRPRPRPNAYPRP | -0.347
134 | RRIRWRPPRLPRPRPRPWTQPRP | 0.272
135 | RRIRERPPRLPRPRPRPECYPRP | -0.143
136 | RRIRQRPPRLPRPRPRPSFVPRP | -0.161
137 | RRIRFRPPRLPRPRPRPILPPRP | -0.188
138 | RRIRRRPPRLPRPRPRPKFFPRP | -0.00723
139 | RRIRNRPPRLPRPRPRPDRCPRP | -0.0122
140 | RRIRWRPPRLPRPRPRPGGDPRP | 0.556
141 | RRIRYRPPRLPRPRPRPKYRPRP | -0.0133
142 | RRIRYRPPRLPRPRPRPVWVPRP | 0.127
143 | RRIRIRPPRLPRPRPRPAFCPRP | 0.167
144 | RRIRERPPRLPRPRPRPIEPPRP | -0.26
145 | RRIRIRPPRLPRPRPRPVKVPRP | -0.00567
146 | RRIRYRPPRLPRPRPRPDMEPRP | -0.0135
147 | RRIRRRPPRLPRPRPRPNHMPRP | -0.299
148 | RRIRMRPPRLPRPRPRPCQIPRP | -0.0194
149 | RRIRTRPPRLPRPRPRPEGSPRP | 0.161
150 | RRIRKRPPRLPRPRPRPENYPRP | -0.0275
